Square brackets hold non-standard residues; d marks the D form. Ends that are not written are not given here. Sta = CC(C)C[C@H](N)[C@@H](O)CC(=O)O; Phg = N[C@H](C(=O)O)c1ccccc1; Tle = CC(C)(C)[C@H](N)C(=O)O; Abu = CC[C@H](N)C(=O)O

The target of series [1] is β-secretase (enzyme preparation not stated for the inhibitor assays) (human) (UniProt P56817). The series is described as follows: cell-based or functional assay.
Series [2] deals with Swedish mutant P13-P5′ peptide with P1′ aspartic acid replaced with a valine (D→V), P05067.
In series [3] the target is Swedish mutant P13-P5′ peptide with P1′ aspartic acid replaced with a leucine (D→L), P05067.
Sequence of Swedish mutant P13-P5′ peptide with P1′ aspartic acid replaced with a leucine (D→L), P05067 (P05067 whole entry, looked up, change not shown, tested part not stated): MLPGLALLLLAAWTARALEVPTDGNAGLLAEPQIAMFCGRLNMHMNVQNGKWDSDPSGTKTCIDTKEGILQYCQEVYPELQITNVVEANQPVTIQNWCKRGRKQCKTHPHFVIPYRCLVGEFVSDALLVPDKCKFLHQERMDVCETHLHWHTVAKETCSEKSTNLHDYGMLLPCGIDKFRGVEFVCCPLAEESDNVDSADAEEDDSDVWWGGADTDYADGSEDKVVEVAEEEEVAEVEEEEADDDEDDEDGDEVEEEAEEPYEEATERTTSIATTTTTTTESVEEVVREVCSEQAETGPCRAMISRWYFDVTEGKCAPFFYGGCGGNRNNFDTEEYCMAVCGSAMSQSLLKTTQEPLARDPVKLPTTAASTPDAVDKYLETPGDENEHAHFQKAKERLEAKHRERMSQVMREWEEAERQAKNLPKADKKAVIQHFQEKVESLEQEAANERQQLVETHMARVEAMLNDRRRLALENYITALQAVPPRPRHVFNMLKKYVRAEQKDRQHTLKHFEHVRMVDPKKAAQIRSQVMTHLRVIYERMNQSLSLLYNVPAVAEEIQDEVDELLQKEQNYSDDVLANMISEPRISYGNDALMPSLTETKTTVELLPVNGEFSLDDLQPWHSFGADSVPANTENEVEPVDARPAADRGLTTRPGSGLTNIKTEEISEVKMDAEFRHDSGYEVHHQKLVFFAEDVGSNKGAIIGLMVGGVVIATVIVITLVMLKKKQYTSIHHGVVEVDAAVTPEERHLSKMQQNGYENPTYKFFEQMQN

Sequence of Swedish mutant P13-P5′ peptide with P1′ aspartic acid replaced with a valine (D→V), P05067 (P05067 whole entry, looked up, change not shown, tested part not stated): as above

The molecule Ac-VM[Sta][Abu]AEF [heptamer peptide 7C (Ac-Val-Met-Sta-Abu-Ala-Glu-Phe)] registered an IC50 Group, MBP C125 assay (Group II: =1<10 µM) in series [1] of less than 10 µM. Ac-VM[Sta][Tle]AEF [heptamer peptide 7F (Ac-Val-Met-Sta-tLeu-Ala-Glu-Phe)] showed an IC50 Group, MBP C125 assay (Group IV: =20<50 µM) in series [1] of less than 50 µM. In turn, Ac-VE[Sta]VAEF [heptamer peptide 7K (Ac-Val-Glu-Sta-Val-Ala-Glu-Phe)] gave an IC50 Group, MBP C125 assay (Group II: =1<10 µM) in series [1] of less than 10 µM. The same measure, in the same setting: the value for Ac-VG[Sta]VAEF [heptamer peptide 7M (Ac-Val-Gly-Sta-Val-Ala-Glu-Phe)] was less than 10 µM. Ac-VV[Sta]VAEF [heptamer peptide 7L (Ac-Val-Val-Sta-Val-Ala-Glu-Phe)]: the IC50 Group, MBP C125 assay (Group IV: =20<50 µM) in series [1] was less than 50 µM. Ac-VM[Sta]AAEF [heptamer peptide 7E (Ac-Val-Met-Sta-Ala-Ala-Glu-Phe)] yielded an IC50 Group, MBP C125 assay (Group II: =1<10 µM) in series [1] of less than 10 µM. In turn, Ac-VM[Sta][Phg]AEF [heptamer peptide 7D (Ac-Val-Met-Sta-Phg-Ala-Glu-Phe)] came in with an IC50 Group, MBP C125 assay (Group II: =1<10 µM) in series [1] of less than 10 µM. On to Ac-VM[Sta]AEF [hexameric peptide 7N (Ac-Val-Met-Sta-Ala-Glu-Phe, P1′ deleted)], for which the IC50 Group, MBP C125 assay (Group II: =1<10 µM) in series [1] was less than 10 µM.

B1: β-secretase purified from human brain (naturally occurring β-secretase) (protein)
chain: ETDEEPEEPGRRGSFVEMVDNLRGKSGQGYYVEMTVGSPPQTLNILVDTGSSNFAVGAAPHPFLHRYYQRQLSSTYRDLRKGVYVPYTQGKWEGELGTDLVSIPHGPNVTVRANIAAITESDKFFINGSNWEGILGLAYAEIARPDDSLEPFFDSLVKQTHVPNLFSLQLCGAGFPLNQSEVLASVGGSMIIGGIDHSLYTGSLWYTPIRREWYYEVIIVRVEINGQDLKMDCKEYNYDKSIVDSGTTNLRLPKKVFEAAVKSIKAASSTEKFPDGFWLGEQLVCWQAGTTPWNIFPVISLYLMGEVTNQSFRITILPQQYLRPVEDVATSQDDCYKFAISQSSTGTVMGAVIMEGFYVVFDRARKRIGFAVSACHVHDEFRTAAVEGPFVTLDMEDCGYNIPQTDESTLMTIAYVMAAICALFMLPLCLMVCQWRCLRCLRQQHDDFADDISLLK
As to B1, the “substrate concentration dependence of hydrolysis by brain β-secretase” value is “The valine and leucine substituted Swedish peptides show saturation at a lower concentration than the parent Swedish peptide” in series [2]; “The valine and leucine substituted Swedish peptides show saturation at a lower concentration than the parent Swedish peptide” in series [3].

In the case of H-VM[Sta]VEF [hexameric peptide 7R ((NH2)Val-Met-Sta-Val-Glu-Phe, P2′ deleted)], the IC50 Group, MBP C125 assay (Group II: =1<10 µM) in series [1] was less than 10 µM.

The values are drawn from patent US7514408.
